{"source": "paper PMC10589136", "about": "“Prenylation of dimeric cyclo-L-Trp-L-Trp by the promiscuous cyclo-L-Trp-L-Ala prenyltransferase EchPT1” (Applied Microbiology and Biotechnology, 2023)", "proteins": {"B1": {"name": "EchPT1 (Aspergillus ruber) (protein)", "chain": "MPSEVLTSYYDYPTHDQEAWWRDTGPLFGRFLKGAGYDVHTQYQYLVFFIKNILPSLGPYPARWRSTITPTGLPIEYSLNFQLNSRPLLRIGFEPLSRFSGTPQDPYNKIAAADLLNQLSKLQLHEFDTQLFNHFTNEFELSKSESESLQKQGGINGKSTVRSQTAFGFDLKGGRVAVKGYAFAGLKNRATGTPVGQLISNSIRNLEPQMHCWDSFSILNSYMEESDGWNEYSFVSWDCVDIERSRLKLYGVHNAVTWDKVKEMWTLGGRIENNATIKTGLELLQHMWSLLQINEGDRDYKGGFAADNGGKTLPIIWNYELNKGSPHPAPKFYFPVHGENDLQVSKSISEFFTHLGWQDHARQYPHLLRQIYPNQNISQTERLQAWISFAYNERTGPYLSVYYYSAERPPWGSDQVK"}}, "assay_in_all_cases": "purified protein", "key": {"purified protein [1]": {"substrate": "CC(C)=CCOP(=O)(O)OP(=O)(O)O", "settings": "1 mM tetratryptomycin A (3) as prenyl acceptor, 5 mM CaCl2, Tris-HCl pH 7.5, 37 °C, 30 min, formation of 3a2"}, "purified protein [2]": {"substrate": "O=C1N[C@@H](Cc2c[nH]c3ccccc23)C(=O)N2C3Nc4ccccc4C3(C34C[C@H]5C(=O)N[C@@H](Cc6c[nH]c7ccccc67)C(=O)N5C3Nc3ccccc34)C[C@@H]12", "settings": "1 mM DMAPP, 5 mM CaCl2, Tris-HCl pH 7.5, 37 °C"}, "purified protein [3]": {"substrate": "O=C1N[C@@H](Cc2cn(C34C[C@H]5C(=O)N[C@@H](Cc6c[nH]c7ccccc67)C(=O)N5C3Nc3ccccc34)c3ccccc23)C(=O)N[C@H]1Cc1c[nH]c2ccccc12", "settings": "1 mM DMAPP, 5 mM CaCl2, Tris-HCl pH 7.5, 37 °C, 30 min, formation of monoprenylated 4a1"}, "[4]": {"settings": "20 min, formation of diprenylated 5a2"}, "[5]": {"settings": "30 min, formation of diprenylated 3a2"}}}
{"protein": "B1", "values": [{"measurement": "Km", "setting": "purified protein [1]", "value": "50 ± 7", "unit": "µM"}, {"measurement": "kcat", "setting": "purified protein [1]", "value": "0.03 ± 0.002", "unit": "s⁻¹"}, {"measurement": "kcat/Km", "setting": "purified protein [1]", "value": 600, "unit": "M⁻¹ s⁻¹"}, {"measurement": "Km", "setting": "purified protein [2]; [4]", "value": "50 ± 5", "unit": "µM"}, {"measurement": "kcat", "setting": "purified protein [2]; [4]", "value": "0.03 ± 0.001", "unit": "s⁻¹"}, {"measurement": "kcat/Km", "setting": "purified protein [2]; [4]", "value": 600, "unit": "M⁻¹ s⁻¹"}, {"measurement": "Km", "setting": "purified protein [2]; [5]", "value": "60 ± 7", "unit": "µM"}, {"measurement": "kcat", "setting": "purified protein [2]; [5]", "value": "0.05 ± 0.0003", "unit": "s⁻¹"}, {"measurement": "kcat/Km", "setting": "purified protein [2]; [5]", "value": 833, "unit": "M⁻¹ s⁻¹"}, {"measurement": "Km", "setting": "purified protein [3]", "value": "250 ± 30", "unit": "µM"}, {"measurement": "kcat", "setting": "purified protein [3]", "value": "0.14 ± 0.01", "unit": "s⁻¹"}, {"measurement": "kcat/Km", "setting": "purified protein [3]", "value": 560, "unit": "M⁻¹ s⁻¹"}]}
